US20220347236A1 (GL INNOVATION, published 2022)

Columns and labels:
human IgE [1] = target: T1, human IgE (human, UniProt P01854-1 1-428); experiment: SPR kinetics on IgE (Table 3), omalizumab as reference; paragraph 125 ties the 69-fold end to FcεRIαECD-Fc2ST
T1 construct: Bought human IgE; also called human IgE (Calbiochem)
Description: (§1) The experiments were conducted by identifying zero base using 25 mM NaOH as a regeneration buffer, and then repeating the above steps. Thereafter, a binding curve was identified using a protein binding analyzer (ProteOn XPR36, Bio-Rad Laboratories, Inc., USA).

human IgE [2] = target: T1, human IgE; experiment: SPR (ProteOn XPR36), ratio of KD to that of omalizumab
Description: as §1

human IgE [3] = target: T1, human IgE; experiment: SPR (ProteOn XPR36), ratio of KD of omalizumab to KD of IgETRAP
Description: as §1

human IgE [4] = target: T1, human IgE; experiment: SPR (ProteOn XPR36, GLC chip), IgE coated, protein flowed; KD = kd/ka
Description: as §1

human IgE [5] = target: T1, human IgE; experiment: SPR (ProteOn XPR36), human IgE
[6] = target: T2, mouse IgE (anti-dinitrophenyl IgE) (mouse, UniProt P06336 1-421); experiment: cell-based or functional assay
T2 sequence (P06336 whole entry): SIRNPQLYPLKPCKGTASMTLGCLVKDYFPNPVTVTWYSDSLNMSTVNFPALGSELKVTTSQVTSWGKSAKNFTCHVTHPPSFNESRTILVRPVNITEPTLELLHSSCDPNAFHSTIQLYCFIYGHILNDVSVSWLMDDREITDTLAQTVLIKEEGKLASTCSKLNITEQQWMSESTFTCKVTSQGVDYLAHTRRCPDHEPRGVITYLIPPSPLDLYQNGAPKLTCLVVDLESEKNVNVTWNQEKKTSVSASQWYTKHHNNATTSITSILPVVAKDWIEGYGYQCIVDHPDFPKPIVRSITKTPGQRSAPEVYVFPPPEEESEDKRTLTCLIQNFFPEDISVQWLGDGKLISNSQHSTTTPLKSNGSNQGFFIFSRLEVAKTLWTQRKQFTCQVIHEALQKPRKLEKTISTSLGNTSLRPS

human IgE [7] = target: T1, human IgE; experiment: SPR (ProteOn XPR36), ratio of kd to that of omalizumab
Description: as §1

human IgE [8] = target: T1, human IgE; experiment: SPR kinetics on IgE (Table 3), omalizumab as reference; paragraph 125 ties the 1.5-fold end to FceR1αECD-Fc2ST
Description: as §1

human IgE [9] = target: T1, human IgE; experiment: SPR (ProteOn XPR36), ratio of ka to that of omalizumab
Description: as §1

[10] = target: T2, mouse IgE (anti-dinitrophenyl IgE); experiment: cell-based or functional assay; remark: listed apart in the source
human IgE [11] = target: T1, human IgE; experiment: cell-based or functional assay
human IgE [12] = target: T1, human IgE; experiment: SPR (ProteOn XPR36, GLC chip), IgE coated, protein flowed at various concentrations
Description: as §1

T1 sequence (P01854 other isoform, or with tags, fused parts or gaps): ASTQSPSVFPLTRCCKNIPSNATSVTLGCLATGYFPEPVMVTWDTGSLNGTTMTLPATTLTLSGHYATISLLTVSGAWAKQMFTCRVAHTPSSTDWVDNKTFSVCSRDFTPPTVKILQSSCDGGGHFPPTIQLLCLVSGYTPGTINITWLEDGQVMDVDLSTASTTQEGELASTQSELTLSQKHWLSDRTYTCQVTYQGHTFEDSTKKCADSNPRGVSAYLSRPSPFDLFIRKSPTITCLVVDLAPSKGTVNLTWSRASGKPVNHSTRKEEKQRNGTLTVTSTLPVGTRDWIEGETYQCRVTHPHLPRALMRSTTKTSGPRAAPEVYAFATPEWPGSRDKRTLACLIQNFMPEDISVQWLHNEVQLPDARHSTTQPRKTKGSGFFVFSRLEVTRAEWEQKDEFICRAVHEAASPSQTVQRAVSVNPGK

Binder	fold of KD against omalizumab (human IgE [2])	Kd (human IgE [4])	fold of kd against omalizumab (human IgE [7])	fold of ka against omalizumab (human IgE [9])	koff (human IgE [12])	kon (human IgE [12])	further results
FcεRIαECD-Fc2ST (Fc fusion, sialic acid added (α-2,6-sialic acid transferase co-expressed), Homodimer; also called IgETRAP; FceR1αECD-Fc2ST) VPQKPKVSLNPPWNRIFKGENVTLTCNGNNFFEVSSTKWFHNGSLSEETNSSLNIVNAKFEDSGEYKCQHQQVNESEPVYLEVFSDWLLLQASAEVVMEGQPLFLRCHGWRNWDVYKVIYYKDGEALKYWYENHNISITNATVEDSGTYYCTGKVWQLDYESEPLNITVIKAPREKYWLQRNTGRGGEEKKGSKEKEEQEERETKTPECPSHTQPLGVFLFPPKPKDTLMISRTPEVTCVVVDVSQEDPEVQFNWYVDGVEVHNAKTKPREEQFNSTYRVVSVLTVLHQDWLNGKEYKCKVSNKGLPSSIEKTISKAKGQPREPQVYTLPPSQEEMTKNQVSLTCLVKGFYPSDIAVEWESNGQPENNYKTTPPVLDSDGSFFLYSRLTVDKSRWQEGNVFSCSVMHEALHNHYTQKSLSLSLGK	69 fold	0.216 nM	106 fold	1.5 fold	5.69e-05 s⁻¹	264000 M⁻¹ s⁻¹	fold change of equilibrium dissociation constant (KD) against omalizumab (printed 'higher'; meant as stronger binding) (human IgE [1]): 22 to 69 fold; Comparison of KD [Omalizumab/IgETRAP] (human IgE [3]): ~69 fold; Kd (human IgE [5]): 0.215 nM; koff (human IgE [5]): 5.69e-05 s⁻¹; kon (human IgE [5]): 264000 M⁻¹ s⁻¹; Average inhibition ratio (%) of mast cell degranulation at IgETRAP 0.016 ug/mL (0.11 nM; IgE/IgETRAP molar ratio 47.8), anti-DNP IgE 1 ug/mL [6]: 2.12%; Average inhibition ratio (%) of mast cell degranulation at IgETRAP 0.063 ug/mL (0.42 nM; IgE/IgETRAP molar ratio 12.5), anti-DNP IgE 1 ug/mL [6]: 12.4%; Average inhibition ratio (%) of mast cell degranulation at IgETRAP 0.25 ug/mL (1.67 nM; IgE/IgETRAP molar ratio 3.15), anti-DNP IgE 1 ug/mL [6]: 13.8%; Average inhibition ratio (%) of mast cell degranulation at IgETRAP 0.5 ug/mL (3.33 nM; IgE/IgETRAP molar ratio 1.58), anti-DNP IgE 1 ug/mL [6]: 49.4%; Average inhibition ratio (%) of mast cell degranulation at IgETRAP 1 ug/mL (6.67 nM; IgE/IgETRAP molar ratio 0.79), anti-DNP IgE 1 ug/mL [6]: 99.3%; Average inhibition ratio (%) of mast cell degranulation at IgETRAP 2 ug/mL (13.3 nM; IgE/IgETRAP molar ratio 0.40), anti-DNP IgE 1 ug/mL [6]: 99.4%; Average inhibition ratio (%) of mast cell degranulation at IgETRAP 4 ug/mL (26.7 nM; IgE/IgETRAP molar ratio 0.20), anti-DNP IgE 1 ug/mL [6]: 99.8%; fold of dissociation rate (Kd) against omalizumab (human IgE [7]): ~94.5 fold; fold lower association rate (ka) than omalizumab (human IgE [8]): 1.5 to 2 fold; IC50 of inhibition of degranulation of mouse bone marrow-derived mast cells (β-hexosaminidase release) in the presence of 1 µg/ml mouse IgE [10]: 0.45 µg/mL; IC50 of mast cell inhibition (β-hexosaminidase release, human FcεRI-expressing mouse bone marrow-derived mast cells, human IgE 1 ug/mL) (human IgE [11]): ~0.0112 µg/mL; fold higher inhibitory ability on mast cell activity than Xolair (human IgE [11]): 58 fold
FcεRIαECD-Fc3ST (Fc fusion, sialic acid added (α-2,6-sialic acid transferase co-expressed), Dimer; also called FcεRIαECD-Fc3 + a2,6-ST) VPQKPKVSLNPPWNRIFKGENVTLTCNGNNFFEVSSTKWFHNGSLSEETNSSLNIVNAKFEDSGEYKCQHQQVNESEPVYLEVFSDWLLLQASAEVVMEGQPLFLRCHGWRNWDVYKVIYYKDGEALKYWYENHNISITNATVEDSGTYYCTGKVWQLDYESEPLNITVIKAPREKYWLQAQPQAEGSLAKATTAPATTRNTGRGGEEKKGSKEKEEQEERETKTPECPSHTQPLGVFLFPPKPKDTLMISRTPEVTCVVVDVSQEDPEVQFNWYVDGVEVHNAKTKPREEQFNSTYRVVSVLTVLHQDWLNGKEYKCKVSNKGLPSSIEKTISKAKGQPREPQVYTLPPSQEEMTKNQVSLTCLVKGFYPSDIAVEWESNGQPENNYKTTPPVLDSDGSFFLYSRLTVDKSRWQEGNVFSCSVMHEALHNHYTQKSLSLSLGK	24 fold	0.621 nM	40 fold	1.7 fold	0.000149 s⁻¹	240000 M⁻¹ s⁻¹	–

Now from value to binder, other results behind:

fold of KD against omalizumab (human IgE [2])	Kd (human IgE [4])	fold of kd against omalizumab (human IgE [7])	fold of ka against omalizumab (human IgE [9])	koff (human IgE [12])	kon (human IgE [12])	Binder	further results
38 fold	0.388 nM	73 fold	1.9 fold	8.29e-05 s⁻¹	214000 M⁻¹ s⁻¹	FcεRIαECD-Fc2 (Fc fusion, also called FcεRIα ECD fusion protein; polypeptide dimer) VPQKPKVSLNPPWNRIFKGENVTLTCNGNNFFEVSSTKWFHNGSLSEETNSSLNIVNAKFEDSGEYKCQHQQVNESEPVYLEVFSDWLLLQASAEVVMEGQPLFLRCHGWRNWDVYKVIYYKDGEALKYWYENHNISITNATVEDSGTYYCTGKVWQLDYESEPLNITVIKAPREKYWLQRNTGRGGEEKKGSKEKEEQEERETKTPECPSHTQPLGVFLFPPKPKDTLMISRTPEVTCVVVDVSQEDPEVQFNWYVDGVEVHNAKTKPREEQFNSTYRVVSVLTVLHQDWLNGKEYKCKVSNKGLPSSIEKTISKAKGQPREPQVYTLPPSQEEMTKNQVSLTCLVKGFYPSDIAVEWESNGQPENNYKTTPPVLDSDGSFFLYSRLTVDKSRWQEGNVFSCSVMHEALHNHYTQKSLSLSLGK	–
22 fold	0.672 nM	45 fold	2 fold	0.000133 s⁻¹	198000 M⁻¹ s⁻¹	FcεRIαECD-Fc3 (Fc fusion) VPQKPKVSLNPPWNRIFKGENVTLTCNGNNFFEVSSTKWFHNGSLSEETNSSLNIVNAKFEDSGEYKCQHQQVNESEPVYLEVFSDWLLLQASAEVVMEGQPLFLRCHGWRNWDVYKVIYYKDGEALKYWYENHNISITNATVEDSGTYYCTGKVWQLDYESEPLNITVIKAPREKYWLQAQPQAEGSLAKATTAPATTRNTGRGGEEKKGSKEKEEQEERETKTPECPSHTQPLGVFLFPPKPKDTLMISRTPEVTCVVVDVSQEDPEVQFNWYVDGVEVHNAKTKPREEQFNSTYRVVSVLTVLHQDWLNGKEYKCKVSNKGLPSSIEKTISKAKGQPREPQVYTLPPSQEEMTKNQVSLTCLVKGFYPSDIAVEWESNGQPENNYKTTPPVLDSDGSFFLYSRLTVDKSRWQEGNVFSCSVMHEALHNHYTQKSLSLSLGK	–
